Here are results for 21 molecules from patent publication US20260258115A1 (MAPP BIOPHARMACEUTICAL, published 2026).

First the molecules themselves.
B1: ADI-41257 (antibody, V domains shown)
VH: QVQLVESGAEVKKPGSSVKVSCKASEGTFSSYGISWVRQAPGQGPEWMGEINPMFGTAKYAQKFQGRVTITVDESTSTADMELSSLTSEDTAVYYCAREFLGQCSETNCPTPSRHLDYWGQGTLVTVSS
VL: EIVMTQSPSSLSASVGDRVTITCRASRTISSYLNWYQQKPGKAPKLLIYATSNLQSGVPSRFSGSGSGADFTLTISSLQPEDFATYYCQQTYSTPGFGPGTKVDIK
B2: ADI-41247 (antibody, V domains shown)
VH: QVQLVQSGAEVKKPGASLQVSCKASGYTFTDSYFHWVRQAPGQGLEWMGRISPHSGGTNYAQKFQGRVTMTRDTSISTAYLELSRLRSDDTAVYYCATEGPRGPFRFDPWGQGTLVTVSS
VL: NFMLTQPHSVSESPGKTVTISCTRSSGSIASNYVQWYQQRPGSSPTTVIYEDNQRPSGVPDRFSGSIDSSSNSASLTISGLMTEDEADYYCQSYDSSNWVFGGGTKLTVL
B3: ADI-41263 (antibody, V domains shown)
VH: QVQLVQSGAEVKKPGASVKVYCKASGYTFTSHYIHWVRQAPGQGLEWMGRMNPSGGSPMYAQKFQERVTMTRDTSTSTAYMELRSLRSEDTAVYYCAMAKFYSFDYWGQGTLVTVSS
VL: B2 VL with N1Q, F2S, M3V, N32Y, Y33F, Q35H, S44A, T47I, M82K
B4: ADI-41258 (antibody, V domains shown)
VH: QVQLVQSGGGLVQRGGSLRLSCAASGFSFRSYAMSWVRQAPGKGLEWVSSISDSGDNTFYADSVKGRFSISRDNSRDTLYLQMNSLRAEDTAVYYCARGGYCSGGNCFPFDYWGQGTLVTVSS
VL: SYELMQLPSVSVSPGQTARITCSGDALPKQYGYWYQQKPGQAPVLVIYKDSERPSGIPERFSGSSSGTTVTLTISGVQAEDEADYYCQSADSGGTYVMFGGGTKLTVL
B5: ADI-41245 (antibody, V domains shown)
VH: QVQLVESGGGLVKPGGSLRLSCAASGFSFSAYYMSWIRQAPGKGLEWISNISGGSSYANYADSVEGRFTISRDNAKNSLYLQMNSLRAEDTAVYYCAREFQTYYYMDVWGKGTTVTVSS
VL: QPVLTQPPSVSGAPGQRVTISCTGSSSNIGAGYEVHWYQQLPGTAPKLLIYGNNNRPSGVPDRFSGSKSGTSASLAITGLQAEDEADYYCQSYDSSLSGSVFGGGTKLTVL
B6: ADI-41251 (antibody, V domains shown)
VH: EVQLVESGGGLVKPGGSLRLSCAASGFTFSDYYMTWIRQAPGKGLEWVSNISGGSSYTNYADSVKGRFTISRDNAKNSVYLQMNSLRAEDTAVYYCARVGCSGGVCNFFLDYWGQGTLVTVSS
VL: B5 VL with P2S, E34D, G52D, N54T, S100Y, G104T, L108V
B7: ADI-41249 (antibody, V domains shown)
VH: QVQLVQSGAEVKKPGESLKISCQVSRDTSTTYWIGWVRQMPGKGLEWMGIIFPGDSDTRYSPSFQGQVTISADKSIMTAYLQLTSLKASDTAMYYCATQALRGAFDIWGQGTMVTVSS
VL: DIRLTQSPSSLSASVGDRVTITCQASQDISNYLNWYQQKPGKAPKLLIYDASYLETGVPSRFSGSGSGTDFTFTISSLQPEDFATYYCQQYDDLLFTFGPGTKLEIK
B8: ADI-41261 (antibody, V domains shown)
VH: QVQLVQSGAEVKKPGSSVKVSCKASGGTFSSYGISWVRQAPGQGLEWMGGIIPMFGAANYAQKFQGRVTITAETSTSTAFMELSSLRSDDTAVYYCARIRWVPNWGGTATSFYNGMDVWGQGTTVTVSS
VL: EIVMTQSPGTLSLSPGERATLSCRASQSVSSSYLAWYQQKPGQAPRLLIYGASSRATGIPDRFSGSGSGTDFTLTISRLEPEDFAVYYCQHYGSSLFTFGPGTKVDIK
B9: ADI-41254 (antibody, V domains shown)
VH: EVQLVESGGGLVQSGGSLRLSCAASGFTFSSYEMNWVRQAPGKGLEWVSYTTNNGRTIYYADSVKGRFTISRDNAKNSLFLQMNGLRAEDTAVYYCARGIQFSRVDYAMDVWGQGTTVTVSS
VL: SYELTQPPSVSGTPGQRITISCSGSSSNIASNTVNWYQHLPGTAPKLLIYSDNQRPSGVPDRFSGSKSGTSASLAISGLQSEDEADYYCAIWDDSLNASYVFGTGTKLTVL
B10: ADI-41255 (antibody, V domains shown)
VH: EVQLVESGGGLVQPGGSLRISCAASGLTFSSYAMSWVRQAPGQGLEWVSSVSGSGVSTYYADSVKGRFTISRDNSKNTLYLQMNSLRAEDTAVYYCAKEDYYHFYMDVWGNGTTVTVSS
VL: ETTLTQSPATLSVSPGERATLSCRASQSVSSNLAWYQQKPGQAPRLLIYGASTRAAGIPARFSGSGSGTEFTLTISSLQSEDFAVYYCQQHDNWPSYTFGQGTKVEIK
B11: ADI-41252 (antibody, V domains shown)
VH: EVQLVQSGAEVKKPGESLKISCMGSGYNFPNYWIGWVRQMSGKGLEWMGIIYPDDSDTTYSPSFQGQVIFSADKSISTAYLQWSSLKASDTAMYFCVRLDKTTQIDFWGQGTLVTVSS
VL: EIVLTQSPSSLSASVGDRVTITCQASQDISNYLNWYQQKPGKAPKLLIYDVSNLETGVPSRFSGSGSGTDFTFTISSLQPEDIATYYCQQHDNLPLTFGQGTRLEIK
B12: ADI-41242 (antibody, V domains shown)
VH: EVQLVESGGGVVQPGRSLRLSCAASGFPFSSYAMHWVRQAPGKGLEWVAVIWFEGNEKYFADSVEGRFTISRDNSKNTLYLQMNSLRAEDTARYYCARFYFGAFDIWGQGTLVTVSS
VL: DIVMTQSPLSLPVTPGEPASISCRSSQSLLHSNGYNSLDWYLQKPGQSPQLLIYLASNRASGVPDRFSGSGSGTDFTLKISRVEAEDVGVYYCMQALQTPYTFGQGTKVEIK
B13: ADI-41243 (antibody, V domains shown)
VH: QVQLVQSRAEVKKPGESLKISCKGSLHSFSNNWIGWVRQMPGKGLEWMGIIFPDDSDTRYSPSFQGQVTISADKSISTAYLQWSSLKASDTAIYYCGTVVTLIQGVADWGQGTLVTVSS
VL: QPVLTQPHSVSESPGKTVTISCTRSSGSIDSSYVQWYQQRPGSSPTTVIYEDNLRPSGVPDRFSGSIDSSSNSASLTISGLKTEDEAEYYCQSYDSSNPVVFGGGTKLTVL
B14: ADI-41244 (antibody, V domains shown)
VH: QVTLKESGGGLIQPGGSLRLSCAVSGFTVSSKYMSWVRQAPGKGLEWVSVIYGGGSTYYTDSVKGRFTISRDNSNNTLYLQMNSLRAEDTAIYYCAREARSYNYDYVGNDAFDIWGQGTTVTVSS
VL: DIVLTQTPDSLAVSLGERATINCKSSQSVLNNFNNKNYLAWYQQKPGQPPKLLIYWASTRESGVPDRFSGSGSGTDFTLTITSLQAEDVAIYYCQQYYRTPPYTFGQGTKVDIK
B15: ADI-41264 (antibody, V domains shown)
VH: EVQLVESGGGLVKPGGSLRLSCAASGFTFSNTWMSWVRQAPGKGLEWVGHIKSKTDGGTTDYAAPVKGRFTISRDDSKSILNLHLNSLKTEDSAVYYCAALPPISGWYYTPGFWGQGTLVTVSS
VL: SYELTQPPSMSVSPGQTARITCFGDAVPKKYVYWYQQKSGQAPVMVIYDDRRRPSGIPERFSGSSSGARATLTISGAQVEDEADYYCYSTDGSGNPSFGGGTKLTVL
B16: ADI-41256 (antibody, V domains shown)
VH: QVQLVQSGAEVKSPGSSATVSCKASGGTFGSYGISWVRQAPGQGLEWIGAIMPMFGTTNYAQKFQGRVTMTADESTSTVYMDVSSLRPDDTAVYYCVRDVFYDILTGYYDADYYHHYMDVWGKGTTVTVSS
VL: DIVMTQSPLSLPVTLGQPASISCRSGQSLVHSDGNTYLNWFQQRPGQSPRRLIYKVSNRGSGVPDRFSGSGSGTDFTLKISRVEAEDVGVYFCMQGTHWPRTFGQGTKVDIK
B17: ADI-41250 (antibody, V domains shown)
VH: QVQLQQWGAGLLKPSETLSLTCAVSGESLTGYFWSWIRQPPGKGLEWIGEVSHSGSTNYNPSLKSRVTMSVDTSKTQFSLKLNSVTAADTAVYYCARGYDYWSGTARYFDYWGQGILVTVSS
VL: QPVLTQPASVSGSPGQSITISCTGTSSDVGGYNYVSWYQQHPGKAPKLMIYDVSNRPSGVSSRFSGSKSGNTASLTISGLQAEDEGDYYCSSYRSSTTSRVFGGGTKVTVL
B18: ADI-41248 (antibody, V domains shown)
VH: QVQLVQSGGGVVQPGRSLRLSCAASGFTFSSYSMHWVRQAPGKGLEWMAVCWYDGSNIYYADSVKGRFTISRDNSKNTVYLQMNSLRAEDTAVYYCARDDRYCSGGTCLSAFDIWGQGTMVTVSS
VL: ETTLTQSPSSLSASVGDRVTITCRASQSISSYLNWYQQKPGRAPKLLIYTTSSLQSGVSSRFSGSGSGTDFTLTINSLQPEDFATYYCQQSYSTPNTFGQGTKVEIK
B19: ADI-41259 (antibody, V domains shown)
VH: QVQLVESGGRLVKPGGSLRLSCAASGFTFSDFYMSWIRQAPGKGLEWVSYISSSGDDPNYADSVKGRFTISRDNSKNSLYLQMNSLRAEDTAVYYCARDEVGWNNLDYYFGMDVWGQGTTVTVSS
VL: DIVMTQSPLSLPVTLGQPASISCRSSQSLVHSDGNTYLSWFHQRPGQSPRRLIYKVSNRDSGVPNRFSGGGSGTDFTLKISRVEAEDVGFFYCMQGTHWQKTFGQGTKVEIK
B20: ADI-41253 (antibody, V domains shown)
VH: EVQLVQSGPGLVKPSETLSLTCTVSGDSISSSDYSYYWGWIRQPPGKGLEWIASLSYSGKTYSQSSLKSRVIISVDTSKKQFSLKLSSVTAADTAVYYCAVTRCYVCTSEGDSFDMWGQGTMVTVSS
VL: DIVLTQTPGTLSLSPGERATLSCRASQSISGNYLAWYQHKPGQAPRLLIYGASTRATGIPDRFSGSGSGTDFPLTISRLEPEDFAVYYCQQYATSPYTFGQGTKVDIK
B21: ADI-41246 (antibody, V domains shown)
VH: EVQLLESGPGLVKPSETLSLTCIVSGGSISSYNWNWIRQPPGKGLEWIGYIYNSGSTNYNPSLKSRVTISVDTSKNQFSLKLSSVTAADTAVYYCARYFDYGSGGFDYWGQGTLVTVSS
VL: ETTLTQSPGTLSLSPGERATLSCRASQSVTSTYLAWYQQKPGQAPRLLIYGASSRATGIPDRFSGSGSGTDFTLTISRLEPEDFAVYYCQQFDSSLTFGGGTKVEIK

Where a chain is given by its changes, count along the chain named. A value given as a limit tells only on which side of the number the result lay.

This assay concerns the target RSV F on RSV-A2 virus (Respiratory syncytial virus (RSV-A2)). The experiment in a line: cell-based or functional assay.
B1: the “Neutralization IC50 (RSV subtype A)” value is above 25 µg/mL.
Under B2 stands above 25 µg/mL; under B3, above 25 µg/mL.
Under B4 stands above 25 µg/mL; under B5, 0.71 µg/mL.
As for B6, the figure is 0.11 µg/mL; as for B7, 0.01 µg/mL.
Regarding B8, the “Neutralization IC50 (RSV subtype A)” value is above 25 µg/mL.
As for B9, the figure is above 25 µg/mL; as for B10, above 25 µg/mL; as for B11, above 25 µg/mL.
In the case of B12, the “Neutralization IC50 (RSV subtype A)” value was above 25 µg/mL.
Under B13 stands above 25 µg/mL; under B14, above 25 µg/mL.
Under B15 stands above 25 µg/mL; under B16, 0.02 µg/mL.
As for B17, the figure is above 25 µg/mL; as for B18, above 25 µg/mL; as for B19, 0.02 µg/mL.
As to B20, the “Neutralization IC50 (RSV subtype A)” value came out at 0.03 µg/mL.
On to B21, for which the “Neutralization IC50 (RSV subtype A)” value was above 25 µg/mL.
